Source: paper PMC6742660, “Autoinhibition and activation mechanisms of the eukaryotic lipid flippase Drs2p-Cdc50p” (Nature Communications, 2019)

Target: T1, Drs2p (S. cerevisiae, UniProt P39524 1-1355)
T1 construct: Drs2p, Saccharomyces cerevisiae, intact protein of 1355 residues; Co-purified with endogenous Cdc50p; Residues 196-212 of the N-terminal peptide and Glu1231-Ala1309 of the C-terminal peptide are ordered in the apo map; The last 46 residues are disordered; also called Drs2p ATPase; P4 ATPase subunit of the Drs2p-Cdc50p lipid flippase; not shown: triple FLAG, C-terminal, kept
T1 sequence (looked up): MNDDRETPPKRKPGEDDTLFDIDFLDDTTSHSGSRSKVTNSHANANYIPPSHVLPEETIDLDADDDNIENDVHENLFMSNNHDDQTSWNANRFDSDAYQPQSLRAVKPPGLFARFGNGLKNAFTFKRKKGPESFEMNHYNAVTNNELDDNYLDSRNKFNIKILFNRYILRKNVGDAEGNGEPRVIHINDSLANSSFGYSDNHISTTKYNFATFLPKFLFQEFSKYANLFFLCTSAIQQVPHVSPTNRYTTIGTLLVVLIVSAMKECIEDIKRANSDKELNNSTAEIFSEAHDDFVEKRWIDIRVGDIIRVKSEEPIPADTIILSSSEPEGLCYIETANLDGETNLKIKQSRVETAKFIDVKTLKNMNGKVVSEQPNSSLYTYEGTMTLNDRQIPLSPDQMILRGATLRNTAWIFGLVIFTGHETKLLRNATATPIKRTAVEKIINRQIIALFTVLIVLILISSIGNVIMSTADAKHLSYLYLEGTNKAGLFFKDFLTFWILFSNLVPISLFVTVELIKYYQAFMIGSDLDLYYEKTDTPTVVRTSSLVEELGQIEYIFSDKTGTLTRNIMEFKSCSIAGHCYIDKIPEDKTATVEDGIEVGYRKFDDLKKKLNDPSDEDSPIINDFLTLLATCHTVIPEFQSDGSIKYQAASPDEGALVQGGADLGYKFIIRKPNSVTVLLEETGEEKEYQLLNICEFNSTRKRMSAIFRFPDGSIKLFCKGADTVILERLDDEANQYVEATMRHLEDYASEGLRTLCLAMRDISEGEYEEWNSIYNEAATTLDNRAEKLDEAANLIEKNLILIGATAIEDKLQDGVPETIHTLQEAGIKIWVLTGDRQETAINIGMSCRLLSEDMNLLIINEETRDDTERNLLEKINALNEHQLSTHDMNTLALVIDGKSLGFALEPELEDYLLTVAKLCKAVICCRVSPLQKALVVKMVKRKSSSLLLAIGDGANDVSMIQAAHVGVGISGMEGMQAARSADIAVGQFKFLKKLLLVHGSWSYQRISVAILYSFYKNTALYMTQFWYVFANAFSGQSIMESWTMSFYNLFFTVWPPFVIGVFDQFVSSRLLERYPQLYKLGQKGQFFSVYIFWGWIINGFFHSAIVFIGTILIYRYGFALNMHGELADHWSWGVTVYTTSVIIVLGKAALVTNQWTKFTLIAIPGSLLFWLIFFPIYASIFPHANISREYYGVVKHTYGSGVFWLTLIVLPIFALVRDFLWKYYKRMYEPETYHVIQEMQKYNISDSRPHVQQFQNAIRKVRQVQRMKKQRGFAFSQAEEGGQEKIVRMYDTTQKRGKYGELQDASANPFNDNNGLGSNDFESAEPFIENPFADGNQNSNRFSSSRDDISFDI
Assay: cryo-EM structure; endogenous Drs2p-Cdc50p complex as purified, apo autoinhibited form, 3 mg/mL; 0.01% LMNG, 0.001% CHS, 150 mM NaCl, 20 mM Tris-HCl pH 7.4, 1 mM MgCl2, 1 mM MnCl2; 2.8 Å map
Conditions: both partners purified

binding result: binds
B1: Cdc50p (natural protein, S. cerevisiae, UniProt P25656 1-391, looked up)
chain: MVSLFKRGKAPPLTKEGPTSKKPPNTAFRQQRLKAWQPILSPQSVLPLLIFVACIFTPIGIGLIVSATKVQDLTIDYSHCDTKASTTAFEDIPKKYIKYHFKSKVENKPQWRLTENENGEQSCELQFEIPNDIKKSIFIYYKITNFYQNHRRYVQSFDTKQILGEPIKKDDLDTSCSPIRSREDKIIYPCGLIANSMFNDTFSQVLSGIDDTEDYNLTNKHISWSIDRHRFKTTKYNASDIVPPPNWMKKYPDGYTDENLPDIHTWEEFQVWMRTAAFPKFYKLTLKNESASLPKGKYQMNIELNYPISLFGGTKSFVLTTNGAIGGRNMSLGVLYLIVAGLCALFGIIFLVKLIFQPRAMGDHTYLNFDDEENEDYEDVHAENTTLREIL
modifications: N-glycans at Asn-199, Asn-216 and Asn-288; disulfide bonds Cys-80 with Cys-123 and Cys-176 with Cys-190
notes: Cdc50p, Saccharomyces cerevisiae, endogenous untagged subunit of the Drs2p-Cdc50p complex; The first half of the 40-residue N-terminal peptide and the 31-residue C-terminal peptide are disordered in the map
